Patent US20030235860A1, “Interactions between AR, ER, TR2, and TR4” (priority 1999, published 2003)
No end group written: not given here.

T1: GST-TR2 (Homo sapiens, UniProt P13056)
T1 construct: pGEX-3x-TR2 were constructed by inserting full-length TR2 fragments to individual vectors; made in house; host or cells: E. coli BL21(DE3) pLysS
T1 sequence (P13056 1-603): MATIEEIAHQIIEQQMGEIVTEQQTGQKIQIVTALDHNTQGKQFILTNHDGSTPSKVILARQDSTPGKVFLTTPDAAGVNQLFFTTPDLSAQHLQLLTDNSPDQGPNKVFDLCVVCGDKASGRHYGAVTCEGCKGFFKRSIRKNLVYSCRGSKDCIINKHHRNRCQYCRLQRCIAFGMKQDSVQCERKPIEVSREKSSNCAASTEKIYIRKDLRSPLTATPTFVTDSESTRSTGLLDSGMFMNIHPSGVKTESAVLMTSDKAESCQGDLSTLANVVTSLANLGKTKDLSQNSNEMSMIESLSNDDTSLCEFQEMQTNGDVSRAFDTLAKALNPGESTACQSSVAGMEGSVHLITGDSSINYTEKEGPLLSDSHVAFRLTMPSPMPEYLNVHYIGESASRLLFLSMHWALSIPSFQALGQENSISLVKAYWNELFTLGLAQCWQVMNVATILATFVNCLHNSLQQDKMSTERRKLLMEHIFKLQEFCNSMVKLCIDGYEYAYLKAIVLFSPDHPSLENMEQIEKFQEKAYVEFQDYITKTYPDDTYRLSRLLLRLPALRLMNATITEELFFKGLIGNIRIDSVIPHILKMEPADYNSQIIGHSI

T2: ER homodimer (Homo sapiens, UniProt P03372)
T2 sequence (P03372 312-595): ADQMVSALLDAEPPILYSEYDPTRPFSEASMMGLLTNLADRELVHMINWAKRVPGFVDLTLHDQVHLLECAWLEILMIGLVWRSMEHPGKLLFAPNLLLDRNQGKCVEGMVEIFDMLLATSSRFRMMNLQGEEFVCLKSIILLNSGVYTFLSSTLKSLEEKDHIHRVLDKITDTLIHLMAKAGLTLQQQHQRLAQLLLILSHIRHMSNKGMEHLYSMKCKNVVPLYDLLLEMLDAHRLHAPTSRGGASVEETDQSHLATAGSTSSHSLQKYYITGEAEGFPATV


Assays:
GST-TR2 = biological target: T1, GST-TR2; experiment: GST-TR2 pull-down assay; type: binding; details: for Interaction with GST-TR2 fusion protein: 35S methionine-labeled proteins, Example 4; for Interaction with GST-TR2 in pull-down assay / Direct interaction with GST-TR2 fusion protein: in vitro translated [35S]-labeled proteins; for Interaction with GST-TR2 in pull-down assay: Example 1; for Direct interaction with GST-TR2 fusion protein: Example 2
Procedure: Fusion proteins of GST-TR2, GST-ER segments and GST were obtained by transforming expressing plasmids into BL21(DE3) pLysS competent bacteria followed with 2-hour IPTG induction. GST-proteins were then purified by mixing Glutathione-Sepharose™ 4B (Pharmacia) into bacteria lysates on a rotating disk at 4° C. for 40 mm followed by washing with 1 mL NENT buffer (20 mM Tris-HCL (pH 8.0), 100 mM NaCl, 1 mM EDTA, 6 mM MgCl2, 1 mM Dithiothretiol, 8% Glycerol, 1 mM PMSF and 0.5% (v/v) NP-40). The ER, AR, RXRA., and TR2 proteins labeled with [35S] were generated in vitro by using the TNT reticulocyte lysate system (Promega). For the in vitro interaction, the glutathione-Sepharose bound GST-proteins were resuspended with 100 μl of interaction buffer (20 mM HEPES pH 7.9, 150 mM KCl, 5 mM MgCl2. 0.5 mM EDTA, 0.5 mM Dithiothretiol, 0.1% (v/v) NP-40, 0.1% (w/v) BSA and 1 mM PMSF) and mixed with 5 μl of […] at 4° C. for 3 h. After extensive washes with NENT buffer, the bound proteins were separated on an SDS/8% PAGE and visualized by using autoradiography.
GST alone and GST fusion proteins were purified by Glutathione-Sepharose 4B beads as instructed by manufacturer (Amersham Pharmacia). The pull-down assay was performed with 5 μl of in vitro-translated [^35S]-labeled proteins as described previously (Yeh, S. et al. (2000) Proc. Natl. Acad. Sci. USA 97, 11256-61).
GST control protein and GST-TR2 fusion protein were purified by glutathione-sepharose 4B beads as described by manufacture (Amersham. Biosciences). Five microliters of in vitro-translated 35S-methionine-labeled proteins was used to perform the Pull-down assay as described previously [4F].

ER homodimer = biological target: T2, ER homodimer; experiment: ER homodimer formation, competition GST pull-down (GST-ER-LBD with [35S]-ER); details: for ER homodimer formation (GST-ER-LBD with [35S]-ER): Example 2, FIG. 16B

| Molecule | Interaction with GST-TR2 fusion protein (GST-TR2) | Interaction with GST-TR2 in pull-down assay (GST-TR2) | Direct interaction with GST-TR2 fusion protein (GST-TR2) | ER homodimer formation (GST-ER-LBD with [35S]-ER) (ER homodimer) | further results |
| --- | --- | --- | --- | --- | --- |
| AR: androgen receptor, SEQ ID NO:31 | able to interact | can interact well | directly interact |  |  |
| ER-#6: interaction blocker, ER fragment aa 312-340, as HA-tagged peptide, expression plasmid or cleaved peptide (ADQMVSALLDAEPPILYSEYDPTRPFSEA; also: HA tag (position not given here); UniProt P03372 312-340, looked up, fragment) |  |  |  | rescued | Interaction of GST-TR2 with [35S]-labeled ER (GST-TR2; increasing amounts of HA-ER-#6 peptide, absence of E2): inhibited |
| RXR: retinoid X receptor, another member of the steroid receptor superfamily | not able to interact | not | not |  |  |
| TR4: human testicular orphan nuclear receptor 4, SEQ ID NO:16; expressed from plasmid or in vitro translated (protein) MTSPSPRIQIISTDSAVASPQRIQGSEPASGPLSVFTSLNKEKIVTDQQTGQKIQIVTAVDASGSPKQQFILTSPDGAGTGKVILASPETSSAKQLIFTTSDNLVPGRIQIVTDSASVERLLGKTDVQRPQVVEYCVVCGDKASGRHYGAVSCEGCKGFFKRSVRKNLTYSCRSSQDCIINKHHRNRCQFCRLKKCLEMGMKMESVQSERKPFDVQREKPSNCAASTEKIYIRKDLRSPLIATPTFVADKDGARQTGLLDPGMLVNIQQPLIREDGTVLLATDSKAETSQGALGTLANVVTSLANLSESLNNGDTSEIQPEDQSASEITRAFDTLAKALNTTDSSSSPSLADGIDTSGGGSIHVISRDQSTPIIEVEGPLLSDTHVTFKLTMPSPMPEYLNVHYICESASRLLFLSMHRARSIPAFQGLGQDCNTSLVRACWNELFTLGLAQCAQVMSLSTILAAIVNHLQNSIQEDKLSGDRIKQVMEHIWKLQEFCNSMANWDIDGYEYAYLKAIVLFSPDHPGLTSTSQIEKFQEKAQMELQDYVQKTYSEDTYRLARILVRLPALRLMSSNITEELFFTGLIGNVSIDSIIPYILKMETAEYNGQITGVSL |  |  |  |  | ER-ER homodimerization (GST-ER-LBD with [35S] ER) (ER homodimer; increasing amounts of TR4, Example 3): inhibit |
| TR2: human testicular orphan nuclear receptor 2, 603 amino acids (protein, UniProt P13056 1-603, looked up, full-length, human testicular orphan nuclear receptor 2, 603 amino acids) MATIEEIAHQIIEQQMGEIVTEQQTGQKIQIVTALDHNTQGKQFILTNHDGSTPSKVILARQDSTPGKVFLTTPDAAGVNQLFFTTPDLSAQHLQLLTDNSPDQGPNKVFDLCVVCGDKASGRHYGAVTCEGCKGFFKRSIRKNLVYSCRGSKDCIINKHHRNRCQYCRLQRCIAFGMKQDSVQCERKPIEVSREKSSNCAASTEKIYIRKDLRSPLTATPTFVTDSESTRSTGLLDSGMFMNIHPSGVKTESAVLMTSDKAESCQGDLSTLANVVTSLANLGKTKDLSQNSNEMSMIESLSNDDTSLCEFQEMQTNGDVSRAFDTLAKALNPGESTACQSSVAGMEGSVHLITGDSSINYTEKEGPLLSDSHVAFRLTMPSPMPEYLNVHYIGESASRLLFLSMHWALSIPSFQALGQENSISLVKAYWNELFTLGLAQCWQVMNVATILATFVNCLHNSLQQDKMSTERRKLLMEHIFKLQEFCNSMVKLCIDGYEYAYLKAIVLFSPDHPSLENMEQIEKFQEKAYVEFQDYITKTYPDDTYRLSRLLLRLPALRLMNATITEELFFKGLIGNIRIDSVIPHILKMEPADYNSQIIGHSI |  |  |  | interrupted |  |
